Measurements: publication PMC6335053

Biological target: Human full-length GIRK4 (purified) (human) (UniProt P48544)
Chain of UniProt P48544 (P48544 whole entry): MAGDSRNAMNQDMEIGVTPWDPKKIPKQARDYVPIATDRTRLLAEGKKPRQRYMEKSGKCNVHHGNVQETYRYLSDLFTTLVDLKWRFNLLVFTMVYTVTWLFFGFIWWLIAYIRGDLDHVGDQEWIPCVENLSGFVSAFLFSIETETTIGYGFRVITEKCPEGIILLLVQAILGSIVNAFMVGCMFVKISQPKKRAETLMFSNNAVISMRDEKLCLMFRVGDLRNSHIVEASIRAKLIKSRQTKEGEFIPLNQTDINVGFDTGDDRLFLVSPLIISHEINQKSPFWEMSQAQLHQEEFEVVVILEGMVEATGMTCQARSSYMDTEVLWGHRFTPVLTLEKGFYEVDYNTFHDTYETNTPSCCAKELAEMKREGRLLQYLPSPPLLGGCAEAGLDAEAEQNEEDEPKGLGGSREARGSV

Substance: Human lipid-anchored Gβ1γ2 (from UniProt P62873 1-340; P59768 1-71) (complex)
- inward GIRK current in planar lipid bilayers: increase on fusing further Gβγ vesicles to a bilayer holding GIRK and Gβγ at 1:0.1 (wt:wt), with 32 µM C8-PIP2 and 32 mM Na+: 5 fold
